Assay results taken from patent publication US20160030595A1 (THOMAS JEFFERSON UNIVERSITY, published 2016).

B1: MS7 mouse monoclonal antibody (IgG1k) (antibody, V domains shown)
VH: EVMLVESGGGLVKPGGSLKLSCAASGFTFSTYAMSWVRQTPEKRLEWVATITSGGSYTYYPDSVKGRFTISRDNAKNILYLQMSSLRSEDTAMYYCTRLRQIGLRGFSDYWGQGTTLTVSS
VL: DILMTQSPSSMYASLGERVTITCKASHDIKSYLSWYQQKPWRSPKTLIYYTTALADGVPSRFSGSGSGQDYSLTISSLESDDTATYYCLQHGESPYTFGGGTKLEIK
B2: MS20 mouse monoclonal antibody (IgG2ak) (antibody, V domains shown)
VH: EVQLEESGPELVKPGASVKMSCKASGYTFTDYVISWVKQRTGQGLEWIGVTYPGSGNTYYGERFKGKATLTVDKMSNTAYMQLSSLTSEDSAVYFCTRNYGSFYALDYWGQGTSVTVSS
VL: DILMTQSPATLSVTPGDRVSLSCRASQSIRDYLHWYQHRSHESPRLLIKYASQSISGIPSRFSGSGSGSDFTLTINSVEPEDVGVYYCQNGHSFPTFGGGTKLEIK

Target: T1, human guanylyl cyclase C (GCC) (human, UniProt P25092 24-430, limits assumed)
T1 construct: also called human GCC; STAR
T1 sequence (P25092 24-430 limits assumed): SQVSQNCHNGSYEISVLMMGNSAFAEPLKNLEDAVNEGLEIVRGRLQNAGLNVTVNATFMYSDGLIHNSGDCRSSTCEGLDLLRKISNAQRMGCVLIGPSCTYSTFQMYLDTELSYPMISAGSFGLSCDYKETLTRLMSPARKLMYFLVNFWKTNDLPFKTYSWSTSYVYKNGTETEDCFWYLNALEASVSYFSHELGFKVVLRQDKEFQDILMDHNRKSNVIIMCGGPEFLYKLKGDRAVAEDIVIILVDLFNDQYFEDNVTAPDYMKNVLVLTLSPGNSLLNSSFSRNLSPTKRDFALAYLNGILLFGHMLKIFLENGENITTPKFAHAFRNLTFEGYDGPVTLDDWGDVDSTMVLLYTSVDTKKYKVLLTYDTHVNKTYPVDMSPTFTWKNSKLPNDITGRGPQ
Assay: not described

binding result	Binder
binds	B1
binds	B2
